Here are results for eight molecules from US20250326838A1 (CSPC MEGALITH BIOPHARMACEUTICAL, published 2025).

Sequences and labels used below:
T1: Siglec15-ECD-His (human, UniProt Q6ZMC9 20-263)
T1 construct: Human Siglec15 (Uniprot Q6ZMC9) extracellular domain with 7 His, expressed in Hek293F; also called Sigle15-ECD-His protein; Siglec15-His protein
T1 sequence: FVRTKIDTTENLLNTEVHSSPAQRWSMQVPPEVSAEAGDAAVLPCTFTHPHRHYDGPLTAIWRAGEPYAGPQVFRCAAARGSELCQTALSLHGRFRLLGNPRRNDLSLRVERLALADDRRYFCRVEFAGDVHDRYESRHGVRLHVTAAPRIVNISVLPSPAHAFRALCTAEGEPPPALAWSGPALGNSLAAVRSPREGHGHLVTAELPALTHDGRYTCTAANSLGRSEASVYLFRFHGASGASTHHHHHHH

T2: His-tagged cynomolgus monkey Siglec15 protein (cynomolgus monkey, UniProt A0A2K5UY47 20-262)
T2 construct: not shown: His tag
T2 sequence: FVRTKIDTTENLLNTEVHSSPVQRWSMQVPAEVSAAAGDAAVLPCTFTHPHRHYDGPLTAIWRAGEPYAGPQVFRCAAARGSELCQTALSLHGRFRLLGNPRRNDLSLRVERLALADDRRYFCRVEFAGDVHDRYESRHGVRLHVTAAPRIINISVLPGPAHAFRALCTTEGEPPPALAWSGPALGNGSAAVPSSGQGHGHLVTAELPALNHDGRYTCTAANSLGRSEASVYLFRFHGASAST

B1: 1-10E5 monoclonal antibody (antibody, V domains shown)
VH: DVKLVESGGGLVKPGGSLKLSCVVSGLTFSRYTMSWVRQTPEKRLEWVATISSGGNSTYYPDSVKGRFTISRDDAKDTLYLQMSSLKSEDTAMYYCTNYGYFFDYWGQGTTLTVSS
VL: DIQMTQSPASLSASVGETVTITCRASENIYSFLAWYQQKQGKSPQLLVYNAKTLAEGVPSRFSGSGSGTQFSLKINSLQPEDFGSYYCQHHYDRPLTFGAGTKLELK
B2: 14A7 monoclonal antibody (antibody, V domains shown)
VH: DVQLQESGPGLVKPSQSLSLTCTVTGYSITSDFAWNWIRQFPGNKLEWMGYIRFSGSTTYKPTLKSRISITRDTSKNQFFLQLNSVTTEDSATYYCAREDYDGLFDYWGQGTTLTVTS
VL: DVLMTQTPLSLPVSLGDHASISCRSSQTILHSNGNTYLDWYLQKPGQSPKLLIYKVSNRFSGVPDRFSGSGSGTDFTLKISRVEAEDLGVYYCFQGSHVPYTFGGGTKLEIK
B3: 1-10E5-IgG1 human-mouse chimeric anti-Siglec15 antibody (antibody, V domains shown)
VH: B1 VH
VL: B1 VL
B4: 1-7F4-IgG1 human-mouse chimeric anti-Siglec15 antibody (antibody, V domains shown)
VH: EVQLQQSGPELVKPGASVKMSCKASGYTFTTYVMHWVKQKPGQGLEWIGYINPYNDKTKYNEKFKGKATLTSDKSSSTAYMEVSRLTSEDSAVYYCGSGYDAMDYWGQGTSVTVSS
VL: DIQMTQSPASLSVSVGETVTITCRASENIYSHLAWYQQKQGKSPQLLIYSATNLADGVPSRFNGSGSGTQYSLKINSLQSEDFGSYYCQHFWGTPWTFGGGTKLEIK
B5: 1-15D1-IgG1 human-mouse chimeric anti-Siglec15 antibody (antibody, V domains shown)
VH: B4 VH with K57N, V83L, R85S
VL: B4 VL with T5A, A25T, I48V
B6: 5G12-IgG1 control antibody (antibody, V domains shown)
VH: QVQLQQPGAELVKPGASVKMSCKASGYTFTSYWITWVIQRPGQGLEWIGDIYCGSDTMHYNEKFKNKATLTVDTSSSTAYMQLSSLTSEDSAVYYCARWWDYGSSYDYFDYWGQGTTLTVSS
VL: DIKMTQSPSSMYASLGERVTITCKASQDINSYLSWFQQKPGKSPKTLIYRANRLVDGVPSRFSGSGSGQDYSLTISSLEYEDMGIYYCLQYDEFPYTFGGGTKLEIKR
B7: 1-7F4 monoclonal antibody (antibody, V domains shown)
VH: B4 VH
VL: B4 VL
B8: 1-15D1 monoclonal antibody (antibody, V domains shown)
VH: B4 VH with K57N, V83L, R85S
VL: B4 VL with T5A, A25T, I48V

Residue numbers refer to the chain shown, from its start. A value given as a limit tells only on which side of the number the result lay.

For the first assay, the target named is His-tagged mouse Siglec15 protein (mouse). The assay is described as follows: ELISA, His-tagged mouse Siglec15 coated. The method, then:
(§1) In order to evaluate the cross-species recognition properties of antibodies, the cross recognition of purified 1-15D1, 1-7F4, 14A7 and 1-10E5 monoclonal antibodies with human, cynomolgus monkey and mouse Siglec15 was tested. ELISA test was carried out by coating the microtiter plate with His-tagged human, cynomolgus monkey and mouse Siglec15 proteins and adding 1-15D1, 1-7F4, 14A7 and 1-10E5 antibodies at concentrations of 5000 ng/ml, 1666.7 ng/ml, 555.6 ng/ml, 185.2 ng/ml, 61.7 ng/ml, 20.6 ng/ml, 6.9 ng/ml, 2.3 ng/ml, 0.8 ng/ml, 0.25 ng/ml and 0.1 ng/ml respectively. […] The 14A7 and 1-10E5 antibodies could not only bind human and monkey Siglec15 proteins, but also bind mouse Siglec 15 proteins (FIG. 5). See Table 1 and FIG. 3-FIG. 5 for the EC₅₀ values of affinities for various Siglec15.
In general, EC50 refers to the concentration that produces a half-maximal response. Molecule B1 registered a concentration giving a half-maximal response (EC50) of 9.61 ng/mL.

In turn, B2 registered an EC50 of 9.99 ng/mL.

The target of another assay is T1, Siglec15-ECD-His. The assay is described as follows: BLI (ForteBio), Siglec15-ECD-His on HIS1K sensor, antibody as analyte. The procedure:
In this experiment, a HIS1K biosensor was used to bind the ligand (Sigle15-ECD-His protein) followed by the analyte. Human Sigle15-ECD-His protein was diluted to 5 μg/ml and immobilized on the biosensor to a binding response threshold of 0.3 nm. After the 120s baseline step, the sensors were respectively immersed in the analytes of anti-Siglec15 antibodies 1-7F4-IgG1, 1-15D1-IgG1 and 1-10E5-IgG1 diluted in 2-fold gradient dilution with 0.02% PBST buffer, and the initial antibody concentration was 100 nM, 7 concentration gradients were set respectively. Human IgG1 (hIgG1) (B109801, Baiying Biotechnology Co., Ltd.) was used as a reference control, and 5G12-IgG1 was used as a positive control to conduct an affinity analysis experiment. The binding time of ligand and analyte was 120s, and the dissociation time was 300s. The raw data were imported into the analysis software, the zero concentration control was subtracted, and the reference channel was subtracted to eliminate the volume effect. The affinity data of the antigen and antibody were calculated by the analysis software regression according to the binding curve.
Usually Kd stands for the equilibrium constant for the complex coming apart. A word on the koff: it is the first-order rate constant of dissociation. Broadly, the kon is a measure of how fast the partners come together. With B3, the Kd was < 0.001 nM, the off-rate constant (koff) was < 1e-07 s⁻¹ and the kon was 1.04e+06 M⁻¹ s⁻¹.

The molecule B4 had a Kd of 0.06 nM, a koff of 3.42e-05 s⁻¹ and an on-rate constant (kon) of 570000 M⁻¹ s⁻¹.

On to B5, for which the Kd was < 0.001 nM, the dissociation rate constant (koff) is < 1e-07 s⁻¹ and the kon turned out to be 436000 M⁻¹ s⁻¹.

As to B6, the Kd is 0.261 nM, the koff is 0.000178 s⁻¹ and the kon stood at 683000 M⁻¹ s⁻¹.

The next assay addresses T2, His-tagged cynomolgus monkey Siglec15 …. The assay is described as follows: ELISA, His-tagged cynomolgus monkey Siglec15 coated. The method, then: as §1
(In general: In an ELISA, binding on a coated surface is turned into a signal by an enzyme label.)
B1 showed an EC50 of 9.49 ng/mL.

Molecule B2 registered a concentration for a half-maximal effect (EC50) of 8.51 ng/mL.

As for B7, the EC50 came to 14.8 ng/mL.

For B8, a half-maximal effect (EC50) was put at 9.07 ng/mL.

The target in the next assay is T3, Siglec15-ECD-Fc (human).
T3 construct: Human Siglec15 extracellular domain fused to human IgG1 Fc, expressed in Hek293F; also called Siglec15-ECD-Fc fusion protein
Description: flow cytometry, single-point blocking by hybridoma supernatant of Siglec15-ECD-Fc (2 ug/ml) binding to LRRC4C-Hek293 cells. From the text: When the hybridoma cells grew to a certain amount, the Siglec15-His protein was coated onto a 96-well microtiter plate, and the mouse anti-Siglec15 serum was used as a positive control, and the hybridoma supernatant was screened by ELISA to select positive clones. […] The experimental results were shown in FIG. 2, and the specific method was as follows. The inventors conducted subclonal screening of these 10 strains of cells by the limiting dilution method, and finally kept the obtained monoclonal positive cell strains separately, and the supernatant of hybridoma cells was collected for purification by ProteinG.
By using the Lipofectamine system, the human LRRC4C (amino acid sequence set forth in SEQ ID NO: 5) plasmid was transfected into Hek293 cells. After 48 hours, G418 (800 μg/mL) was added to screen for 10-14 days to obtain a cell line stably expressing LRRC4C. Cells were collected, washed once with PBS buffer, blocked with PBS containing 2% FBS for 1 h at room temperature. The hybridoma cell supernatant was added in 50 μl/well; then the diluted Siglec 15-ECD-Fc protein (2 ug/ml) was added in 50 μl/well; mouse IgG was used as a negative control. The cells were incubated at 4° C. for 50 min, then washed three times with PBS buffer containing 0.2% FBS, then diluted with Alexa Fluor 488-labeled goat anti-human IgG in PBS containing 2% FBS, and incubated at 4° C. in the dark for 50 min, and washed three times with PBS buffer containing 0.2% FBS; finally, the cells were resuspended in 200 μL PBS and analyzed by flow cytometry. The average fluorescence reading of 10,000 cells for each sample was recorded, wherein the FITC fluorescence intensity was taken as the abscissa and the cell number as the ordinate, and the voltage parameters were adjusted so that the blank control was at the origin of the coordinate axis. The percentage result of hybridoma cell supernatant for blocking the binding of Siglec15-ECD-Fc protein to LRRC4C was calculated.
In general terms: A flow cytometer gives signals particle by particle.
For the molecule B1, the binding result is given as “binds”.

For the molecule B2, the binding result is recorded as “binds”.

As for B7, the binding result is recorded as “binds”.

Turning to B8, the binding result is given as “binds”.

The target of the next assay is T1, Siglec15-ECD-His. Description: ELISA, His-tagged human Siglec15 coated. The method, then:
as §1
Molecule B1 displayed a 50% effective concentration (EC50) of 7.21 ng/mL.

In turn, B2 gave an EC50 of 8.97 ng/mL.

Regarding B7, the concentration for a half-maximal effect (EC50) was 10 ng/mL.

B8 registered a concentration giving a half-maximal response (EC50) of 4.98 ng/mL.
